From US20130011427A1 (priority 2009, published 2013)

Experiments:
[1] = molecular target: HLA-A2.1 (HHD monochain) (human; murine); test: cell-based or functional assay
[2] = molecular target: HLA-DR2 (chimeric HLA-DRA1*0101/DRB1*1501 with I-E domains) (human; murine) (UniProt Q8BHN5); test: cell-based or functional assay
[3] = test system: HLA-A2.1 (HLA-A*0201) Tg mice, CD4-depleted splenocytes; format: cell-based, mouse
[4] = test system: HLA-DR2 (DRB1*1501) Tg mice, CD8-depleted splenocytes; format: cell-based, mouse

Chain of UniProt Q8BHN5 (Q8BHN5 whole entry, stated change not applied): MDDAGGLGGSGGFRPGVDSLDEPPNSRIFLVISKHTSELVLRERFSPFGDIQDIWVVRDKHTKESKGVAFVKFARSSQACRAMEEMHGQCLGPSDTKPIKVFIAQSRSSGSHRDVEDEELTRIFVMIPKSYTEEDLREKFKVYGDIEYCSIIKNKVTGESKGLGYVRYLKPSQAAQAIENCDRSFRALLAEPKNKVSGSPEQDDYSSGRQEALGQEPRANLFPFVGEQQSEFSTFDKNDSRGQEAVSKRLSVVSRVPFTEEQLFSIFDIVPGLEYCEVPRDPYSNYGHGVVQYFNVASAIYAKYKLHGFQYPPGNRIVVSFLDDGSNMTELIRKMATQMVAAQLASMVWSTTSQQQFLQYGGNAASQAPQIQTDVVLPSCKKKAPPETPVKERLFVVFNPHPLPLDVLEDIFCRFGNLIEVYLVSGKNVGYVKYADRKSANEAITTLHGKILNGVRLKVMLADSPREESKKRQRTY

| Substance | IFN-γ ELISpot (SFC/10^6) [1] [SFC/10^6] | IFN-γ ELISpot (SFC/10^6) [2] [SFC/10^6] | further results |
| --- | --- | --- | --- |
| WNV NS1 228-245 peptide | 84 |  |  |
| WNV NS1 236-251 peptide | 78 |  |  |
| WNV NS2a 6-23 peptide |  | 563 |  |
| WNV NS2a 52-66 peptide |  | 516 |  |
| WNV NS2a 80-97 peptide |  | 289 |  |
| WNV NS2a 128-145 peptide |  | 384 |  |
| WNV NS2a 136-154 peptide |  | 98 |  |
| WNV NS2a 160-177 peptide | 63 |  |  |
| WNV NS2a 211-229 peptide |  | 74 |  |
| WNV NS2b 39-56 peptide |  | 47 |  |
| WNV NS2b 59-75 peptide |  | 59 |  |
| WNV NS2b 115-131 peptide | 108 |  |  |
| WNV NS3 22-38 peptide |  | 155 |  |
| WNV NS3 70-87 peptide | 174 |  |  |
| WNV NS3 78-95 peptide | 150 |  |  |
| WNV NS3 85-100 peptide | 72 |  |  |
| WNV NS3 91-107 peptide | 156 |  |  |
| WNV NS3 98-115 peptide | 145 |  |  |
| WNV NS3 138-155 peptide | 159 |  |  |
| WNV NS3 146-162 peptide | 58 |  |  |
| WNV NS3 161-177 peptide | 56 | 72 |  |
| WNV NS3 176-192 peptide |  | 59 |  |
| WNV NS3 183-200 peptide | 62 | 55 |  |
| WNV NS3 199-216 peptide |  | 52 |  |
| WNV NS3 206-223 peptide | 108 | 323 |  |
| WNV NS3 214-230 peptide |  | 146 |  |

| Substance | IFN-γ ELISpot (SFC/10^6) [1] [SFC/10^6] | IFN-γ ELISpot (SFC/10^6) [2] [SFC/10^6] | further results |
| --- | --- | --- | --- |
| WNV NS3 221-237 peptide | 26 |  |  |
| WNV NS3 241-258 peptide | 127 |  |  |
| WNV NS3 249-266 peptide | 79 | 139 |  |
| WNV NS3 265-282 peptide | 150 | 169 |  |
| WNV NS3 304-321 peptide | 94 |  |  |
| WNV NS3 317-333 peptide | 151 |  |  |
| WNV NS3 324-340 peptide | 117 |  |  |
| WNV NS3 336-352 peptide | 167 |  |  |
| WNV NS3 343-360 peptide | 55 |  |  |
| WNV NS3 359-376 peptide | 75 |  |  |
| WNV NS3 413-430 peptide | 130 |  |  |
| WNV NS3 455-469 peptide |  | 200 |  |
| WNV NS3 460-475 peptide |  | 123 |  |
| WNV NS3 515-532 peptide | 140 | 95 |  |
| WNV NS3 523-539 peptide | 57 | 160 |  |
| WNV NS3 530-547 peptide | 127 |  |  |
| WNV NS3 588-605 peptide |  | 42 |  |
| WNV NS4b 30-47 peptide |  | 89 |  |
| WNV NS4b 233-250 peptide |  | 62 |  |
| WNV NS5 181-198 peptide |  | 122 |  |
| WNV NS5 212-229 peptide |  | 168 |  |
| WNV NS5 448-463 peptide | 26 |  |  |
| WNV NS5 598-615 peptide |  | 252 |  |
| WNV prM 114-130 peptide |  | 101 |  |
| WNV prM 144-161 peptide |  | 84 |  |
| YISAIVQGERMDEPIPA [NS3 161-177] |  |  | T cell activation of HLA transgenic mice (SFC/10^6) IFN-γ ELISpot, A2 [3]: 56 ± 28 SFC/10^6; T cell activation of HLA transgenic mice (SFC/10^6) IFN-γ ELISpot, DR2 [4]: 72 ± 15 SFC/10^6 |
